In paper PMC4930721 (Cancer discovery, 2016) one finds Kd data, which are given here for one molecule.

The target of the assay is LEDGF PWWP (residues 1-120), 15N-labeled (UniProt O75475 1-120, uniformly 15N-labeled). Put plainly: NMR titration.

Where no end group is shown, it is not given here. Me3 = trimethyl-lysine

Chain of LEDGF PWWP (residues 1-120), 15N-labeled (O75475 1-120): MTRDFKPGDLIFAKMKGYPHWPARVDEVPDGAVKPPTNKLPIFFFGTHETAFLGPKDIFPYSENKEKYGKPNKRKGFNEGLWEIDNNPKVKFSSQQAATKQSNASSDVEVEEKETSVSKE

On to ATGGVK(Me3)KPHR [histone H3K36me3 peptide], for which the Kd (usually the constant that tells how readily two partners part at equilibrium) is 4.4 mM.
